Residues, ends and D or L forms follow the SMILES beside them. *: point of attachment. Doxorubicin(3'-N) = COc1cccc2c1C(=O)c1c(O)c3c(c(O)c1C2=O)C[C@@](O)(C(=O)CO)C[C@@H]3O[C@H]1C[C@H](N*)[C@H](O)[C@H](C)O1; Mal(CH2CH2O)6CH2CH2CO = O=C1C=CC(=O)N1CCOCCOCCOCCOCCOCCOCCC(=O)*; MaleimidoPEG4propanoyl = O=C1C=CC(=O)N1CCOCCOCCOCCOCCC(=O)*; Hexanoyl(6-maleimido) = O=C1C=CC(=O)N1CCCCCC(=O)*; Butanoyl(4-maleimido) = O=C1C=CC(=O)N1CCCC(=O)*; Propanoyl(3-maleimido) = O=C1C=CC(=O)N1CCC(=O)*; X1 = O=C1C=CC(=O)N1CCOCCOCCOCCC(=O)*; PEG6 = NCCOCCOCCOCCOCCOCCOCCC(=O)O; X2 = O=C1C=CC(=O)N1CCOCCOCCC(=O)*; PEG4 = NCCOCCOCCOCCOCCC(=O)O; PEG2 = NCCOCCOCCC(=O)O
Experiment: Water solubility of freeze-dried compounds in water (observation and HPLC)

COc1cccc2c1C(=O)c1c(O)c3c(c(O)c1C2=O)C[C@@](O)(C(=O)CO)C[C@@H]3O[C@H]1C[C@H](NC(=O)[C@H](CC(C)C)NC(=O)[C@H](CC(N)=O)NC(=O)[C@H](C)NC(=O)[C@H](C)NC(=O)[C@H](CCCNC(=N)N)NC(=O)CCCCCN2C(=O)C=CC2=O)[C@H](O)[C@H](C)O1 [QHL-136] ({Hexanoyl(6-maleimido)}-RAANL-{Doxorubicin(3'-N)})
solubility: > 2 mg/mL

COc1cccc2c1C(=O)c1c(O)c3c(c(O)c1C2=O)C[C@@](O)(C(=O)CO)C[C@@H]3O[C@H]1C[C@H](NC(=O)[C@H](CC(C)C)NC(=O)[C@H](CC(N)=O)NC(=O)[C@H](C)NC(=O)[C@H](C)NC(=O)[C@H](CC(=O)O)NC(=O)CCN2C(=O)C=CC2=O)[C@H](O)[C@H](C)O1 [QHL-114] ({Propanoyl(3-maleimido)}-DAANL-{Doxorubicin(3'-N)})
solubility: > 15 mg/mL

COc1cccc2c1C(=O)c1c(O)c3c(c(O)c1C2=O)C[C@@](O)(C(=O)CO)C[C@@H]3O[C@H]1C[C@H](NC(=O)[C@H](CC(C)C)NC(=O)[C@H](CC(N)=O)NC(=O)[C@H](C)NC(=O)[C@H](C)NC(=O)[C@H](CCCCN)NC(=O)CCCCCN2C(=O)C=CC2=O)[C@H](O)[C@H](C)O1 [QHL-135] ({Hexanoyl(6-maleimido)}-KAANL-{Doxorubicin(3'-N)})
solubility: > 5 mg/mL

COc1cccc2c1C(=O)c1c(O)c3c(c(O)c1C2=O)C[C@@](O)(C(=O)CO)C[C@@H]3O[C@H]1C[C@H](NC(=O)[C@H](CC(C)C)NC(=O)[C@H](CC(N)=O)NC(=O)[C@H](C)NC(=O)[C@H](C)NC(=O)CCOCCOCCOCCOCCOCCOCCNC(=O)CCCN2C(=O)C=CC2=O)[C@H](O)[C@H](C)O1 [QHL-108] ({Butanoyl(4-maleimido)-PEG6}-AANL-{Doxorubicin(3'-N)})
solubility: > 20 mg/mL

COc1cccc2c1C(=O)c1c(O)c3c(c(O)c1C2=O)C[C@@](O)(C(=O)CO)C[C@@H]3O[C@H]1C[C@H](NC(=O)[C@H](CC(C)C)NC(=O)[C@H](CC(N)=O)NC(=O)[C@H](C)NC(=O)[C@H](C)NC(=O)CCOCCOCCOCCOCCNC(=O)CCCN2C(=O)C=CC2=O)[C@H](O)[C@H](C)O1 [QHL-105] ({Butanoyl(4-maleimido)-PEG4}-AANL-{Doxorubicin(3'-N)})
solubility: > 10 mg/mL

COc1cccc2c1C(=O)c1c(O)c3c(c(O)c1C2=O)C[C@@](O)(C(=O)CO)C[C@@H]3O[C@H]1C[C@H](NC(=O)[C@H](CC(C)C)NC(=O)[C@H](CC(N)=O)NC(=O)[C@H](C)NC(=O)[C@H](C)NC(=O)[C@H](CC(=O)O)NC(=O)CCOCCOCCOCCOCCN2C(=O)C=CC2=O)[C@H](O)[C@H](C)O1 [QHL-035] (MaleimidoPEG4propanoyl-DAANL-{Doxorubicin(3'-N)})
solubility: > 25 mg/mL

COc1cccc2c1C(=O)c1c(O)c3c(c(O)c1C2=O)C[C@@](O)(C(=O)CO)C[C@@H]3O[C@H]1C[C@H](NC(=O)[C@H](CC(C)C)NC(=O)[C@H](CC(N)=O)NC(=O)[C@H](C)NC(=O)[C@H](C)NC(=O)[C@H](CCC(=O)O)NC(=O)CCOCCOCCOCCOCCOCCOCCN2C(=O)C=CC2=O)[C@H](O)[C@H](C)O1 [QHL-024] ({Mal(CH2CH2O)6CH2CH2CO}-EAANL-{Doxorubicin(3'-N)})
solubility: > 30 mg/mL

COc1cccc2c1C(=O)c1c(O)c3c(c(O)c1C2=O)C[C@@](O)(C(=O)CO)C[C@@H]3O[C@H]1C[C@H](NC(=O)[C@H](CC(C)C)NC(=O)[C@H](CC(N)=O)NC(=O)[C@H](C)NC(=O)[C@H](C)NC(=O)[C@H](CC(=O)O)NC(=O)CCOCCOCCNC(=O)CCN2C(=O)C=CC2=O)[C@H](O)[C@H](C)O1 [QHL-042] ({Propanoyl(3-maleimido)-PEG2}-DAANL-{Doxorubicin(3'-N)})
solubility: > 20 mg/mL

COc1cccc2c1C(=O)c1c(O)c3c(c(O)c1C2=O)C[C@@](O)(C(=O)CO)C[C@@H]3O[C@H]1C[C@H](NC(=O)[C@H](CC(C)C)NC(=O)[C@H](CC(N)=O)NC(=O)[C@H](C)NC(=O)[C@H](C)NC(=O)[C@H](CS)NC(=O)CCCCCN2C(=O)C=CC2=O)[C@H](O)[C@H](C)O1 [QHL-131] ({Hexanoyl(6-maleimido)}-CAANL-{Doxorubicin(3'-N)})
solubility: > 10 mg/mL

COc1cccc2c1C(=O)c1c(O)c3c(c(O)c1C2=O)C[C@@](O)(C(=O)CO)C[C@@H]3O[C@H]1C[C@H](NC(=O)[C@H](CC(C)C)NC(=O)[C@H](CC(N)=O)NC(=O)[C@H](C)NC(=O)[C@H](C)NC(=O)[C@H](Cc2ccc(O)cc2)NC(=O)CCCCCN2C(=O)C=CC2=O)[C@H](O)[C@H](C)O1 [QHL-132] ({Hexanoyl(6-maleimido)}-YAANL-{Doxorubicin(3'-N)})
solubility: > 2 mg/mL

COc1cccc2c1C(=O)c1c(O)c3c(c(O)c1C2=O)C[C@@](O)(C(=O)CO)C[C@@H]3O[C@H]1C[C@H](NC(=O)[C@H](CC(C)C)NC(=O)[C@H](CC(N)=O)NC(=O)[C@H](C)NC(=O)[C@H](C)NC(=O)CCOCCOCCNC(=O)CCCN2C(=O)C=CC2=O)[C@H](O)[C@H](C)O1 [QHL-099] ({Butanoyl(4-maleimido)-PEG2}-AANL-{Doxorubicin(3'-N)})
solubility: > 20 mg/mL

COc1cccc2c1C(=O)c1c(O)c3c(c(O)c1C2=O)C[C@@](O)(C(=O)CO)C[C@@H]3O[C@H]1C[C@H](NC(=O)[C@H](CC(C)C)NC(=O)[C@H](CC(N)=O)NC(=O)[C@H](C)NC(=O)[C@H](C)NC(=O)[C@H](CCC(=O)O)NC(=O)CCOCCOCCOCCOCCOCCOCCNC(=O)CCCN2C(=O)C=CC2=O)[C@H](O)[C@H](C)O1 [QHL-081] ({Butanoyl(4-maleimido)-PEG6}-EAANL-{Doxorubicin(3'-N)})
solubility: > 30 mg/mL

COc1cccc2c1C(=O)c1c(O)c3c(c(O)c1C2=O)C[C@@](O)(C(=O)CO)C[C@@H]3O[C@H]1C[C@H](NC(=O)[C@H](CC(C)C)NC(=O)[C@H](CC(N)=O)NC(=O)[C@H](C)NC(=O)[C@H](C)NC(=O)[C@H](CC(=O)O)NC(=O)CCOCCOCCOCCOCCOCCOCCN2C(=O)C=CC2=O)[C@H](O)[C@H](C)O1 [QHL-036] ({Mal(CH2CH2O)6CH2CH2CO}-DAANL-{Doxorubicin(3'-N)})
solubility: > 30 mg/mL

COc1cccc2c1C(=O)c1c(O)c3c(c(O)c1C2=O)C[C@@](O)(C(=O)CO)C[C@@H]3O[C@H]1C[C@H](NC(=O)[C@H](CC(C)C)NC(=O)[C@H](CC(N)=O)NC(=O)[C@H](C)NC(=O)[C@H](C)NC(=O)[C@H](CCC(=O)O)NC(=O)CCOCCOCCN2C(=O)C=CC2=O)[C@H](O)[C@H](C)O1 [QHL-021] (X2-EAANL-{Doxorubicin(3'-N)})
solubility: > 20 mg/mL

COc1cccc2c1C(=O)c1c(O)c3c(c(O)c1C2=O)C[C@@](O)(C(=O)CO)C[C@@H]3O[C@H]1C[C@H](NC(=O)[C@H](CC(C)C)NC(=O)[C@H](CC(N)=O)NC(=O)[C@H](C)NC(=O)[C@H](C)NC(=O)[C@H](CCC(=O)O)NC(=O)CCOCCOCCOCCN2C(=O)C=CC2=O)[C@H](O)[C@H](C)O1 [QHL-022] (X1-EAANL-{Doxorubicin(3'-N)})
solubility: > 20 mg/mL

CC[C@H](C)[C@H](NC(=O)CCCCCN1C(=O)C=CC1=O)C(=O)N[C@@H](C)C(=O)N[C@@H](C)C(=O)N[C@@H](CC(N)=O)C(=O)N[C@@H](CC(C)C)C(=O)N[C@H]1C[C@H](O[C@H]2C[C@](O)(C(=O)CO)Cc3c(O)c4c(c(O)c32)C(=O)c2c(OC)cccc2C4=O)O[C@@H](C)[C@H]1O [QHL-125] ({Hexanoyl(6-maleimido)}-IAANL-{Doxorubicin(3'-N)})
solubility: > 2 mg/mL

From patent US11319341B2, “Immune-stimulating soluble doxorubicin-conjugated complex” (Yafei (Shanghai) Biopharmaceutical Co., Ltd., priority 2016, dated 2022)
